From article PMC2701625

Biological target: purified human hsp90 (human) (UniProt P07900)
Assay: cross-linking

stoichiometry N: 2
Substance: purified human hsp90 (from UniProt P07900 1-732) (natural protein)
